In article PMC6179936 (Journal of immunology (Baltimore, Md. : 1950), 2018):
Where no end group is shown, it is not given here. The star is where a group is joined. X1 = 2,3‑bis(palmitoyloxy)‑(2RS)‑propyl, CCCCCCCCCCCCCCCC(=O)OCC(C*)OC(=O)CCCCCCCCCCCCCCC; Palmitoyl = CCCCCCCCCCCCCCCC(=O)*

Target: T1, Recombinant human SAA1 made in human embryonic kidney (HEK) cells (human, UniProt P0DJI8 19-122)
T1 sequence (looked up): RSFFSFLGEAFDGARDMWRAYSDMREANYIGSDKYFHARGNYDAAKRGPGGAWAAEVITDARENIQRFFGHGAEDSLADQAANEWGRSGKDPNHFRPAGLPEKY
Assay: retention on a 3 kDa cutoff centrifugal filter, read by TNFα from J774 cells

Palmitoyl-C(X1)SKKKK [Pam3CSK4, synthetic triacylated lipopeptide]: binds.
